Measured values: patent US20140017242A1, “ANTI-BRADYKININ B2 RECEPTOR (BKB2R) MONOCLONAL ANTIBODY” (Diamedica, Inc., priority 2010, published 2014)
Where “and” joins values, the source holds several entries; their conditions need not be identical. Identical values can stand only once.

What was measured:
Sprague Dawley Rats = experiment: Hyperinsulinemic-euglycemic clamp in Sprague Dawley rats; type: in vivo, rat
Experimental: The hyperinsulinemic euglycemic clamp has been considered to as the standard in vivo technique for measuring insulin sensitivity effects of type 2 diabetes drugs. In this procedure, insulin is administered to a test animal to raise the insulin concentration, while glucose is infused to maintain euglycemia. The glucose infusion rate (GIR) needed to maintain euglycemia is a reflection of insulin action or improved insulin sensitivity. The bradykinin receptor agonist (anti-BKB2R) monoclonal antibody clone 5F12G1 was tested in a euglycemic clamp study to measure its ability to improve insulin sensitivity.
Healthy young male Sprague Dawley Rats weighing 275-300 g were used for the study (Harlan Laboratory, Indianapolis, USA). The rats were maintained in a controlled environment at a temperature of 70-72° F., humidity 30-70%, with a photo cycle of 12 hours of light and 12 hours of dark. They were provided with TEKLAD™ 2018-Global 18% diet and drinking water ad libitum. After seven days of acclimatization, rats were grouped in groups of four.
Animals were anesthetized with an intraperitoneal injection of ketamine-plus-xylazine cocktail and the right jugular vein and left carotid artery were catheterized externally through an incision in the skin flap. The catheterized animals were allowed to recover for five days. After five days of recovery, animals were fasted for six hours and a 120-minute hyperinsulimic-euglycemic clamp was applied with continuous infusion of human insulin (Humulin, Eli Lilly, Indianapolis, Ind.) at a constant rate of 4mU/kg/minute. […] Both insulin and glucose were infused through catheterized right jugular vein and blood glucose levels were monitored from the catheterized carotid artery. Arterial blood glucose levels and plasma insulin levels were measured prior to infusion at t=−120, −90, −30, −15 and 0 minutes and then at every 10 minutes for 120 minutes (t=120), using a Glucose meter (Accu-Chek™ Roche Diagnostics, Indianapolis, Ind.) and a rat insulin ELISA kit. […]

ZDF fa/fa rats [1] = experiment: 21-day ZDF fa/fa study: tolerability; type: in vivo, rat; conditions: different doses (0.2, 0.04, 0.008 mg/kg s.c. every 3 days), 21 days
Experimental: Animals. Male ZDF fa/fa rats were obtained from CRL (Kingston, N.Y.). Upon arrival, rats were seven weeks of age. The rats were housed individually per cage in a room with a photo cycle of 12 hours of light and 12 hours of dark and an ambient temperature of 70-72° F. and fed on regular rodent diet and water ad libitum. At the age of eleven weeks, rats were divided into six groups (Table 5) of eight rats per group based on fasting blood glucose levels. A sub-group of four rats per group was maintained in parallel to the main groups and was dosed similarly for twenty-one days for a hyperinsulinemic-euglycemic clamp study.
The test compounds 5F12G1 and MG2b-57 were administered subcutaneously once every three days. Exenatide was administrated intraperitoneally twice every day and sitagliptin was administrated orally once every day for a period of twenty-one days.

Hep G2 = experiment: MTT Cell Proliferation Assay, Hep G2; type: cell-based, human; conditions: 120 hours of exposure
Excerpt: This Example describes characterization of the cytotoxic activity of herein described anti-BKB2R monoclonal antibodies against a panel of cancer cell lines. BxPC-3 is a human adenocarcinoma cell line originally isolated from the pancreas (pancreatic cancer) (ATCC # CRL-1687; Tan et al., Cancer Invest. 4: 15-23, 1986. PubMed: 3754176). MV-4-11 is a human biphenotypic B myelomonocytic leukemia (mixed-lineage leukemia, MLL-AF4) cell line originally isolated from the peripheral blood (ATCC # CRL-959; Lange et al., Blood 70: 192-199, 1987. PubMed: 3496132). Hep G2 is a human hepatocellular carcinoma cell line isolated from the liver (liver cancer) (ATCC # HB-8065; Aden et al., Nature 282: 615-616, 1979. PubMed: 233137). RS4;11 is a human acute lymphoblastic leukemia (mixed-lineage leukemia, MLL-AF4) cell line isolated from the bone marrow (ATTC # CRL-1873) Stong et al., Blood 65: 21-31, 1985. PubMed: 3917311). HT-29 is a human colorectal adenocarcinoma (ATTC # HTB-38) cell line isolated from the colon (colon cancer). Fogh et al., J. Natl. Cancer Inst. 58: 209-214, 1977. PubMed: 833871). NUGC-4 is a human stomach carcinoma isolated from the stomach paragastiric lymph node (JCRB # JCRB0834; Akiyama et al., Jpn. J. Surg., 18: 438-446, 1988). […]
The anti-proliferative activity of test compounds against the indicated cell lines was evaluated in vitro using the ATCC's MTT Cell Proliferation Assay (Catalog No. 30-1010K). After the 120 hour incubation with drug (e.g., anti-BKB2R mAb or cisplatin), cell proliferation was measured by addition of MTT reagent to each well and incubation for an additional 4 hrs. […] Optical absorbance (570 nm) of the test wells was measured and then quantitated relative to control wells that received no drug. Results were expressed as percent inhibition versus compound concentration and graphed, as shown in FIGS. 19-25, for cell lines BxPC-3, MV-4;11, HepG2, RS-4;11, HT-29, NUGC-4, and PC-3, respectively.

ZDF fa/fa rats [2] = experiment: 21-day ZDF fa/fa study: urinary glucose (glycosuria); type: in vivo, rat; conditions: day 14

B1: 5F12G1: murine monoclonal anti-BKB2R antibody (IgG2b,κ), VH comprising SEQ ID NO:1, VL comprising SEQ ID NO:2 (antibody, listed as Mus musculus, V domains shown)
VH: EVKLEESGGGLVQPGGSMKLSCVVSGFTFSDYWMSWVRHSPEMGLEWVAEIRLKSDNYATHYAESVKGRFTISRDDSKSRLYLQINSLRGEDTGIYYCTRDYYAMEYWGQGTSVTVSS
VL: DVVMTQTPLSLPVSLGDQASISCRSSQTIVHSNGKTYLEWYLQKPGQSPKLLIYKVSNRFSGVPDRFSGSGSGTEFTLKISRVETEDLGVYYCFQASHVPYTFGGGTKLEIK
increase in total glucose infusion rate AUC compared to vehicle (Sprague Dawley Rats; 0.5 mg/kg i.m. at t=−30 min, 120-minute clamp): 179%
peak increase of glucose infusion rate compared to vehicle (Sprague Dawley Rats; 0.5 mg/kg i.m. at t=−30 min, t=60 min): 291%
Calculated Glucose Infusion Rate Area Under the Curve (Sprague Dawley Rats; 0.5 mg/kg i.m., individual animals # 1-4): 4560 mg/kg and 4317 mg/kg and 3243 mg/kg and 2685 mg/kg
tolerability / toxic effects (ZDF fa/fa rats [1]): well tolerated and no toxic effects were noted
EC 50 Values (ng/ml) Hep G2 (Hep G2): 21000 ng/mL
urine glucose level (ZDF fa/fa rats [2]; 0.008 mg/kg s.c. every 3 days): 54 ± 11 mg/dL
urine glucose level (ZDF fa/fa rats [2]; 0.04 mg/kg s.c. every 3 days): 49 ± 6 mg/dL
urine glucose level (ZDF fa/fa rats [2]; 0.2 mg/kg s.c. every 3 days): 31 ± 2 mg/dL
